Biological target: soybean trypsin inhibitor (soybean) (UniProt P01070)
Assay: SPR + ITC + AUC + fluorescence polarisation

- stoichiometry N: 2
Substance: α-chymotrypsin (enzyme)

— PMC3491091
